In PMC12046560:

Target: Neorhodopsin (NeoR) rhodopsin module from Rhizoclosmatium globosum, residues 1-279 (Rhizoclosmatium globosum)
Test: cryo-EM structure; single-particle cryo-EM of purified NeoR in LMNG/CHS, 50 mM Hepes pH 7.4, 100 mM NaCl, after two SEC steps (monodisperse, single oligomeric state); 4.80 Å map refined under C1; two AlphaFold2 monomers fitted into the map

stoichiometry N: 2
Substance: Neorhodopsin (NeoR) rhodopsin module from Rhizoclosmatium globosum, residues 1-279 (domain or fragment)
